Experiments:
[1] = target: recombinant Myc-Mm_RanQ69L(GTP) (Mus musculus, UniProt P62827 1-216, Q69L); assay: pull-down; purified GST-Mm_Bt (2.8 μg) on glutathione-Sepharose beads incubated with purified Myc-RanQ69L (5 μg) loaded with 2 mM GTP, binding buffer, 4 °C, 2 h; settings: both partners purified
[2] = target: GST-Mm_RanQ69L (Mus musculus, UniProt P62827 1-216, Q69L); assay: pull-down; competition: 0.1, 1, 10 μg recombinant Mm_Bt added to 10 μg GST-RanQ69L on glutathione beads in embryo lysate holding FLAG-importin β; read-out is the importin β pulled down; settings: both partners purified

B1: GST-Mm_Bt (domain or fragment)
chain: PVPPRLLTEEEYRIQGEVETQKALQELREFCNSPECSAWKTISRIQSPKRFADFVEGSFHLTPNEVSVHEQEYGLGSIFTQDEELSSEEEGSEYPTFTQNNFLT
B1: binds [1].

B2: recombinant Mm_Bt (domain or fragment)
chain: PVPPRLLTEEEYRIQGEVETQKALQELREFCNSPECSAWKTISRIQSPKRFADFVEGSFHLTPNEVSVHEQEYGLGSIFTQDEELSSEEEGSEYPTFTQNNFLT
notes: source: recombinant
B2: binds [2].

— PMC4422613, “The Inner Nuclear Membrane Protein Nemp1 Is a New Type of RanGTP-Binding Protein in Eukaryotes” (PLoS ONE, 2015)
